± gives the uncertainty stated by the source.
Assay: self-splicing fitness, log relative to wild type (ln ratio); higher = more splicing; Tetrahymena group I intron in knt gene, E. coli kanamycin selection, DiMSum; sequences stand for … in CUCUCU…GGAGGGAAAAGUUAUCAGGCAUGCACCUGGUAGCUAGUCUUUAAACCAAUAGAUUGCAUCGGUUUAAAAGGCAAGACCGUCAAAUUGCGGGAAAGGGGUCAACAGCCGUUCAGUACCAAGUCUCAGGGGAAACUUUGAGAUGGCCUUGCAAAGGGUAUGGUAAUAAGCUGACGGACAUGGUCCUAACCACGCAGCCAAGUCCUAAGUCAACAGAUCUUCUGUUGAUAUGGAUGCAGUUCACAGACUAAAUGUCGGUCGGGGAAGAUGUAUUCUUCUCAUAAGAUAUAGUCGGACCUCUCCUUAAUGGGAGCUAGCGGAUGAAGUGAUGCAACACUGGAGCCGCUGGGAACUAAUUUGUAUGCGAAAGUAUAUUGAUUAGUUUUGGAGUACUCGUGGUCG
Method in brief: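 DiMSum derived fitness as the error-weighted combination of fold changes across replicates, kanamycin versus no kanamycin, normalised to wild type. E. coli BL21(DE3) held the library, which randomised all eight P1ex-region intron nucleotides within the knt kanamycin-resistance gene on pET-22b(+). Six replicate transformations grew overnight at 37°C or 30°C on LB agar with or without 25 μg/mL kanamycin, also containing 100 μg/mL carbenicillin, 50 μM IPTG and 0.2% rhamnose, and pooled colonies were amplicon-sequenced on an Illumina HiSeq 2500.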

GGCGAGCAAUAUUACGUGGG
self-splicing fitness (ln) (30 °C): -3.57 ± 0.44
self-splicing fitness (ln) (37 °C): -1.44 ± 0.27

GGCGAGCAAUAUUACGUUAU
self-splicing fitness (ln) (30 °C): -3.17 ± 0.17
self-splicing fitness (ln) (37 °C): -1.3 ± 0.16

GGCUAGCAAUAUUACGAAAA
self-splicing fitness (ln) (30 °C): -1.06 ± 0.24
self-splicing fitness (ln) (37 °C): -1.33 ± 0.27

GGCUAGCAAUAUUACGAAAC
self-splicing fitness (ln) (37 °C): -0.972 ± 0.4

GGCUAGCAAUAUUACGAAUA
self-splicing fitness (ln) (30 °C): -0.326 ± 0.37
self-splicing fitness (ln) (37 °C): -1.7 ± 0.28

GGCUAGCAAUAUUACGAAUG
self-splicing fitness (ln) (30 °C): -2.26 ± 0.14
self-splicing fitness (ln) (37 °C): -1.01 ± 0.14

GGCUAGCAAUAUUACGACCU
self-splicing fitness (ln) (30 °C): -0.605 ± 0.081
self-splicing fitness (ln) (37 °C): 0.0864 ± 0.09

GGCUAGCAAUAUUACGAGAA
self-splicing fitness (ln) (37 °C): -0.208 ± 0.37

GGCUAGCAAUAUUACGAUCA
self-splicing fitness (ln) (30 °C): -0.733 ± 0.093
self-splicing fitness (ln) (37 °C): -0.246 ± 0.088

GGCUAGCAAUAUUACGAUCG
self-splicing fitness (ln) (30 °C): -0.651 ± 0.12
self-splicing fitness (ln) (37 °C): -0.58 ± 0.15

GGCUAGCAAUAUUACGCAGA
self-splicing fitness (ln) (30 °C): -1.3 ± 0.1
self-splicing fitness (ln) (37 °C): -0.502 ± 0.11

GGCUAGCAAUAUUACGCGGC
self-splicing fitness (ln) (30 °C): -3.55 ± 0.43
self-splicing fitness (ln) (37 °C): -2.19 ± 0.46

GGCUAGCAAUAUUACGCUAA
self-splicing fitness (ln) (30 °C): -0.801 ± 0.2
self-splicing fitness (ln) (37 °C): -0.34 ± 0.15

GGCUAGCAAUAUUACGCUGA
self-splicing fitness (ln) (30 °C): -1.18 ± 0.12
self-splicing fitness (ln) (37 °C): -0.413 ± 0.13

GGCUAGCAAUAUUACGGAUG
self-splicing fitness (ln) (30 °C): -0.642 ± 0.13
self-splicing fitness (ln) (37 °C): -0.56 ± 0.15

GGCUAGCAAUAUUACGUAUG
self-splicing fitness (ln) (30 °C): -2.06 ± 0.13
self-splicing fitness (ln) (37 °C): -0.678 ± 0.13

GGCUAGCAAUAUUACGUGCA
self-splicing fitness (ln) (30 °C): 0.326 ± 0.14
self-splicing fitness (ln) (37 °C): 0.0604 ± 0.18

GGCUAGCAAUAUUACGUGUG
self-splicing fitness (ln) (30 °C): -0.503 ± 0.085
self-splicing fitness (ln) (37 °C): -0.362 ± 0.083

GGCUAGCAAUAUUACGUUGG
self-splicing fitness (ln) (30 °C): -2.34 ± 0.16
self-splicing fitness (ln) (37 °C): -3.24 ± 0.32

GGGAAGCAAUAUUACGACUC
self-splicing fitness (ln) (30 °C): -1.17 ± 0.1
self-splicing fitness (ln) (37 °C): -0.341 ± 0.13

GGGAAGCAAUAUUACGAUUA
self-splicing fitness (ln) (30 °C): -1.56 ± 0.21
self-splicing fitness (ln) (37 °C): -0.805 ± 0.18

GGGAAGCAAUAUUACGCAAU
self-splicing fitness (ln) (30 °C): -2.67 ± 0.17
self-splicing fitness (ln) (37 °C): -1.42 ± 0.19

GGGAAGCAAUAUUACGCACG
self-splicing fitness (ln) (30 °C): -0.766 ± 0.16
self-splicing fitness (ln) (37 °C): -0.128 ± 0.18

GGGAAGCAAUAUUACGCAGA
self-splicing fitness (ln) (30 °C): -3.81 ± 0.42
self-splicing fitness (ln) (37 °C): -1.65 ± 0.27

GGGAAGCAAUAUUACGCAGC
self-splicing fitness (ln) (30 °C): -1.29 ± 0.14
self-splicing fitness (ln) (37 °C): -1.12 ± 0.19

GGGAAGCAAUAUUACGCAGU
self-splicing fitness (ln) (30 °C): -2 ± 0.13
self-splicing fitness (ln) (37 °C): 0.176 ± 0.14

GGGAAGCAAUAUUACGCAUG
self-splicing fitness (ln) (30 °C): -1.38 ± 0.16
self-splicing fitness (ln) (37 °C): -0.366 ± 0.2

GGGAAGCAAUAUUACGCCAA
self-splicing fitness (ln) (30 °C): -1.66 ± 0.095
self-splicing fitness (ln) (37 °C): -0.896 ± 0.1

GGGAAGCAAUAUUACGCGCG
self-splicing fitness (ln) (30 °C): -0.57 ± 0.13
self-splicing fitness (ln) (37 °C): -0.552 ± 0.14

GGGAAGCAAUAUUACGCGGA
self-splicing fitness (ln) (30 °C): -2.82 ± 0.23
self-splicing fitness (ln) (37 °C): -1.44 ± 0.18

GGGAAGCAAUAUUACGCUUC
self-splicing fitness (ln) (30 °C): -3.32 ± 0.4

GGGAAGCAAUAUUACGCUUU
self-splicing fitness (ln) (30 °C): -3.54 ± 0.24

GGGAAGCAAUAUUACGGAGG
self-splicing fitness (ln) (30 °C): -2.91 ± 0.41
self-splicing fitness (ln) (37 °C): -1.99 ± 0.35

GGGAAGCAAUAUUACGGAUA
self-splicing fitness (ln) (37 °C): -1.38 ± 0.42

GGGAAGCAAUAUUACGGCCA
self-splicing fitness (ln) (30 °C): -0.752 ± 0.14
self-splicing fitness (ln) (37 °C): -0.611 ± 0.19

GGGAAGCAAUAUUACGGCGG
self-splicing fitness (ln) (30 °C): -1.2 ± 0.14
self-splicing fitness (ln) (37 °C): -1.94 ± 0.24

GGGAAGCAAUAUUACGGCUU
self-splicing fitness (ln) (30 °C): -2.11 ± 0.2
self-splicing fitness (ln) (37 °C): -1.41 ± 0.23

GGGAAGCAAUAUUACGGGGA
self-splicing fitness (ln) (30 °C): -1.49 ± 0.2
self-splicing fitness (ln) (37 °C): -2.65 ± 0.29

GGGAAGCAAUAUUACGGUCU
self-splicing fitness (ln) (30 °C): -1.58 ± 0.086
self-splicing fitness (ln) (37 °C): 0.382 ± 0.11

GGGAAGCAAUAUUACGUAAG
self-splicing fitness (ln) (30 °C): -1.09 ± 0.086
self-splicing fitness (ln) (37 °C): -1.14 ± 0.13

GGGAAGCAAUAUUACGUAGU
self-splicing fitness (ln) (30 °C): -3.38 ± 0.18
self-splicing fitness (ln) (37 °C): -2.18 ± 0.17

GGGAAGCAAUAUUACGUCCG
self-splicing fitness (ln) (30 °C): -1.81 ± 0.15
self-splicing fitness (ln) (37 °C): -0.461 ± 0.18

GGGAAGCAAUAUUACGUGAU
self-splicing fitness (ln) (30 °C): -2.04 ± 0.1
self-splicing fitness (ln) (37 °C): -1.83 ± 0.16

GGGAAGCAAUAUUACGUUAA
self-splicing fitness (ln) (30 °C): -2.82 ± 0.18
self-splicing fitness (ln) (37 °C): -1.73 ± 0.19

GGGCAGCAAUAUUACGAAUC
self-splicing fitness (ln) (30 °C): -0.438 ± 0.15
self-splicing fitness (ln) (37 °C): -0.491 ± 0.21

GGGCAGCAAUAUUACGAGCA
self-splicing fitness (ln) (30 °C): -1.98 ± 0.1
self-splicing fitness (ln) (37 °C): -1.37 ± 0.11

GGGCAGCAAUAUUACGAGUG
self-splicing fitness (ln) (30 °C): -3.47 ± 0.24
self-splicing fitness (ln) (37 °C): -1.64 ± 0.13

GGGCAGCAAUAUUACGCAAC
self-splicing fitness (ln) (30 °C): -0.812 ± 0.16
self-splicing fitness (ln) (37 °C): -1.56 ± 0.13

GGGCAGCAAUAUUACGCACA
self-splicing fitness (ln) (30 °C): -0.436 ± 0.23
self-splicing fitness (ln) (37 °C): 0.448 ± 0.23

GGGCAGCAAUAUUACGCGCC
self-splicing fitness (ln) (30 °C): -3.31 ± 0.18
self-splicing fitness (ln) (37 °C): -2.82 ± 0.28

GGGCAGCAAUAUUACGCGUC
self-splicing fitness (ln) (30 °C): -2.55 ± 0.4
self-splicing fitness (ln) (37 °C): -1.71 ± 0.31

GGGCAGCAAUAUUACGCUAU
self-splicing fitness (ln) (30 °C): -1.13 ± 0.077
self-splicing fitness (ln) (37 °C): -0.411 ± 0.094

GGGCAGCAAUAUUACGGAAG
self-splicing fitness (ln) (30 °C): -3.03 ± 0.23
self-splicing fitness (ln) (37 °C): -1.02 ± 0.17

GGGCAGCAAUAUUACGGAAU
self-splicing fitness (ln) (30 °C): -1.49 ± 0.11
self-splicing fitness (ln) (37 °C): -1.3 ± 0.19

GGGCAGCAAUAUUACGGAUA
self-splicing fitness (ln) (30 °C): -2.63 ± 0.17
self-splicing fitness (ln) (37 °C): -1.8 ± 0.13

GGGCAGCAAUAUUACGGGCG
self-splicing fitness (ln) (30 °C): -0.318 ± 0.088
self-splicing fitness (ln) (37 °C): -0.0663 ± 0.1

GGGCAGCAAUAUUACGGUCC
self-splicing fitness (ln) (30 °C): -4.03 ± 0.46
self-splicing fitness (ln) (37 °C): -2.14 ± 0.28

GGGCAGCAAUAUUACGGUUC
self-splicing fitness (ln) (30 °C): -1.53 ± 0.11
self-splicing fitness (ln) (37 °C): -1.93 ± 0.13

GGGCAGCAAUAUUACGUCAU
self-splicing fitness (ln) (30 °C): -0.717 ± 0.066
self-splicing fitness (ln) (37 °C): 0.195 ± 0.076

GGGCAGCAAUAUUACGUCGA
self-splicing fitness (ln) (30 °C): -0.0821 ± 0.07
self-splicing fitness (ln) (37 °C): 0.711 ± 0.1

GGGCAGCAAUAUUACGUGCA
self-splicing fitness (ln) (30 °C): -1.62 ± 0.079
self-splicing fitness (ln) (37 °C): 0.116 ± 0.098

GGGCAGCAAUAUUACGUGGC
self-splicing fitness (ln) (30 °C): -3.12 ± 0.25
self-splicing fitness (ln) (37 °C): -2.21 ± 0.26

GGGCAGCAAUAUUACGUUAA
self-splicing fitness (ln) (30 °C): -1.19 ± 0.1
self-splicing fitness (ln) (37 °C): -0.46 ± 0.11

GGGCAGCAAUAUUACGUUUA
self-splicing fitness (ln) (30 °C): -1.09 ± 0.069
self-splicing fitness (ln) (37 °C): -0.227 ± 0.094

GGGGAGCAAUAUUACGAACG
self-splicing fitness (ln) (37 °C): -1.11 ± 0.36

GGGGAGCAAUAUUACGAUAC
self-splicing fitness (ln) (30 °C): -2.37 ± 0.3
self-splicing fitness (ln) (37 °C): -0.552 ± 0.27

GGGGAGCAAUAUUACGAUUC
self-splicing fitness (ln) (30 °C): -1.52 ± 0.16
self-splicing fitness (ln) (37 °C): -0.791 ± 0.2

GGGGAGCAAUAUUACGCCCA
self-splicing fitness (ln) (30 °C): -1.14 ± 0.19
self-splicing fitness (ln) (37 °C): -0.0692 ± 0.27

GGGGAGCAAUAUUACGCUAA
self-splicing fitness (ln) (37 °C): 0.376 ± 0.38

GGGGAGCAAUAUUACGCUGA
self-splicing fitness (ln) (30 °C): -3.2 ± 0.16
self-splicing fitness (ln) (37 °C): -2.33 ± 0.2

GGGGAGCAAUAUUACGGCAA
self-splicing fitness (ln) (30 °C): -2.04 ± 0.33
self-splicing fitness (ln) (37 °C): -0.565 ± 0.25

GGGGAGCAAUAUUACGGCGA
self-splicing fitness (ln) (30 °C): -2.4 ± 0.26
self-splicing fitness (ln) (37 °C): -1.81 ± 0.24

GGGGAGCAAUAUUACGGGUU
self-splicing fitness (ln) (30 °C): -2.84 ± 0.22
self-splicing fitness (ln) (37 °C): -2.2 ± 0.39

GGGGAGCAAUAUUACGGUCC
self-splicing fitness (ln) (30 °C): -1.26 ± 0.46

GGGGAGCAAUAUUACGUCAA
self-splicing fitness (ln) (30 °C): -2.48 ± 0.3
self-splicing fitness (ln) (37 °C): -3.16 ± 0.35

GGGGAGCAAUAUUACGUCCA
self-splicing fitness (ln) (30 °C): -0.767 ± 0.12
self-splicing fitness (ln) (37 °C): -0.145 ± 0.22

GGGGAGCAAUAUUACGUUAC
self-splicing fitness (ln) (30 °C): -3.54 ± 0.38
self-splicing fitness (ln) (37 °C): -1.07 ± 0.26

GGGGAGCAAUAUUACGUUGU
self-splicing fitness (ln) (37 °C): -1.82 ± 0.28
